Reference: the RNAGym collection of RNA variant scans (doi:10.1073/pnas.2313332121)
This sample holds only a part of the variants without activity.

B1: TPR 5TU (parent)
chain: GGAUCUUCUCGAUCUAACAAAAAAGACAAAUCUGCCACAAAGCUUGAGAGCAUCUUCGGAUGCAGAGGCGGCAGCCUUCGGUGGCGCGAUAGCGCCAACGUUCUCAACUAUGACACGCAAAACGCGUGCUCCGUUGAAUGGAGUUUAUCAUG

Variants of: B1
Experiment: polymerase ribozyme fitness, log enrichment relative to wild type (log ratio); higher = more active; in vitro selection for triplet polymerase activity
How it was run: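 To select mutant libraries of each subunit of a heterodimeric triplet polymerase ribozyme, built by PCR and transcribed, each was annealed with a biotinylated primer, partner subunit and triplets, then incubated frozen at −7 °C. Extended constructs were gel-excised, captured on streptavidin beads and amplified by RT-PCR, in one round carried out in triplicate. Illumina sequencing of input and output libraries kept genotypes with ≥10 input reads and ≥1 read per output. Fitness is the base-2 logarithm of genotype enrichment relative to wild-type enrichment, from inverse-variance-weighted replicate averages.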

Variant | polymerase ribozyme fitness (log ratio)
GGAUCUUCUCGAUCUAACAAAAAAGACAAAUCUGCCACAAAGCUUGAGAGCAUCUUCGGAUGAAGAGGCGGCAGCCUUCAGUGGGGCGAUAGCGCGAACGUUCUCAACUGUGACACGCAAAACGCGUGCUCCGUUGAAUGGAGUUUAUCAUG [C63A G80A C85G C96G A110G] | ≤ -4.2
GGAUCUUCUCGAUCUAACAAAAAAGACAAAUCUGCCACAAAGCUUGAGAGCAUCUUCGGAUGACGAGGCGGUAGCCUUCGGUGGCGCGUUAGCGCCAACGUUCUCAACUAUGACACGCAAAACGCGUGCGCCGUUGAAUGGAGUUUAUCAUG [C63A A64C C72U A89U U130G] | ≤ -4.2
GGAUCUUCUCGAUCUAACAAAAAAGACAAAUCUGCCACAAAGCUUGAGAGCAUCUUCGGAUUCAGAGGCGGCAGCCUUCGGUGGCGCGAUAGCGCCAACGUACUCAACUAUGACACGCAAAACGCGUGCUCCGUUGAAUGGAGUUUAUCAUG [G62U U102A] | -1.64
GGAUCUUCUCGAUCUAACAAAAAAGACAAAUCUGCCACAAAGCUUGAGAGCAUCUUCGGAUGACGAGGCGGCAGCCUUCGGUGGCGCGAUAGCGCCAACGUUCUCAACUAUGACACGCAAAACGCGUGCUCCGUUGAAUGGAGUUUAUCAUG [C63A A64C] | -1.46
GGAUCUUCUCGAUCUAACAAAAAAGACAAAUCUGCCACAAAGCUUGAGAGCAUCUUCGGAUGAAGAGGCGGCAGCCUUCGGUGGCGCGAUAUCGCCAACGUUCUCAACUAUGACAUGCAAAACGCGUGCUCCGUUGAAUGGAGUUUAUCAUG [C63A G92U C116U] | -3.98
GGAUCUUCUCGAUCUAACAAAAAAGACAAAUCUGCCACAAAGCUUGAGAGCAUCUUCGGAUGGCGAGGCGGUAGCCUUCGGUGGCGCGAUAGCGUCAACGUUCUGAACUAUGACACGCAUAACGCGUGCUCCGUUGAAUGUAGUUUAUCAUG [C63G A64C C72U C95U C105G A120U G141U] | ≤ -4.2
GGAUCUUCUCGAUCUAACAAAAAAGACAAAUCUGCCACAAAGCUUGAGAGCAUCUUCGGAUUCAGAGGCGGCAGCCAUCGGUGGCUCGAUAGCGCCAAGGUUCUCAACUAUGACACGCAAAACGCGUGCUCCGUUGAAUGGAGUUUAUCAUG [G62U U77A G86U C99G] | ≤ -4.2
GGAUCUUCUCGAUCUAACAAAAAAGACAAAUCUGCCACAAAGCUUGAGAGCAUCUUCGGAUGAAGAGGCGGCAGCCUUCGGUGGCGCGAUACCGCCAACGUUCUCAACUAUGACACGCAAAACGCGUGCUCCGUUGAAUGGAGUUUAUCAUG [C63A G92C] | -1.03
GGAUCUUCUCGAUCUAACAAAAAAGACAAAUCUGCCACAAAGCUUGAGAGCAUCUUCGGAUGAAGAGGCGGCAGCCUUCGGUGGCGCGAUAGCGCCAACGUUCUCAACUAUGACACGCAAAACGCGUGCUCCGUUGAAUGGAGUUUCUCAUG [C63A A147C] | 0.331
GGAUCUUCUCGAUCUAACAAAAAAGACAAAUCUGCCACAAAGCUUGAGAGCAUCUUCGGAUGAAGAGGCGGCAGCCUUCGGUGGCGCGAUAGCGCCAACGUUCUCAACUAUGACACGCAUAACCCGUGCUCCGUUGAAUGGAGUUUAUCAUG [C63A A120U G124C] | -2.49
GGAUCUUCUCGAUCUAACAAAAAAGACAAAUCUGCCACAAAGCUUGAGAGCAUCUUCGGAUGAAGAGGCGGCAGCCUUCGGUGGCGAGAUGGCGCCAACGUUCUCAACUAUGACACGCAAAACGCGUGCUCCGUUGAAUGGAGUUUAUCAUG [C63A C87A A91G] | ≤ -4.2
GGAUCUUCUCGAUCUAACAAAAAAGACAAAUCUGCCACAAAGCUUGAGAGCAUCUUCGGAUGAAGAGGCGGCAGCCUUCGGUGGCGCGAUAGCGCCAACGUUCUCAACUAUGACACGCAAAACGCGUGCUCCGUUGAAUGGAGUUUAUCAUG [C63A] | 0.15
GGAUCUUCUCGAUCUAACAAAAAAGACAAAUCUGCCACAAAGCUUGAGAGCAUCUUCGGAUGGAGAGGCGGCAGCCUUCGGUGGCGCGAUAGCGCCAACGUUCUCAACUAUGACACGCAAAACGCGUGCUCCGUUGAAUGGAGUUUAUCAUG [C63G] | 0.136
GGAUCUUCUCGAUCUAACAAAAAAGACAAAUCUGCCACAAAGCUUGAGAGCAUCUUCGGAUGAAGAGGCGGCAGCGUUCGGUGGUGCGAUAGCGCUGACGUUCUCAACUAUGACAGGCAAAACGCGUGCUCCGUUGAAUGGAGUUUAUCAUG [C63A C76G C85U C96U A97G C116G] | ≤ -4.2
GGAUCUUCUCGAUCUAACAAAAAAGACAAAUCUGCCACAAAGCUUGAGAGCAUCUUCGGAUGAAGAGGCGGCAGCCUUCGGUGGGGCGAUAGCGUCAACGUUCUCAACUAUGACACGUAAAACGCGUGCUCCGUUGAAUGGAGUUUAUCAUG [C63A C85G C95U C118U] | -2.65
GGAUCUUCUCGAUCUAACAAAAAAGACAAAUCUGCCACAAAGCUUGAGAGCAUCUUCGGAUGAAGAGGCGGCAGCCUUCGGUGGCGCGAUAGCGCCAACGUUCUCAACUAUGACACUCCAAACGCGUGCUCCGUUGAAUGGAGUUUAUCAUG [C63A G117U A119C] | 0.257
GGAUCUUCUCGAUCUAACAAAAAAGACAAAUCUGCCACAAAGCUUGAGAGCAUCUUCGGAUUCAGAGGCGGCAGCCUUCGGUGGCGCGAUAGCGCCAACGUUCUCAACUAUGACACGCAAAACCCGUGCUCCGUUGAAUGGAGUUUAUCAUG [G62U G124C] | -1.42
GGAUCUUCUCGAUCUAACAAAAAAGACAAAUCUGCCACAAAGCUUGAGAGCAUCUUCGGAUGAAGAGGCGGCAGCCUUCGGUGGCGCGAUAGCGCCAACGUUCUCACCUACGACACGCAAAGCGCGUGCUCCGUUGAAUGGAGUUUAUCAUG [C63A A107C U111C A122G] | ≤ -4.2
GGAUCUUCUCGAUCUAACAAAAAAGACAAAUCUGCCACAAAGCUUGAGAGCAUCUUCGGAUGAAGAGGCGGCAGCCUUCGGUGGCGUAAUAGCGCCAACGUUCUCAACUAUGACUCGCAAAACGCGUGCUCCGUUGAAUGGAGUUUAUCAUG [C63A C87U G88A A115U] | ≤ -4.2
